Experiment [1] deals with purified hexon protein from ChAdOx1 (chimpanzee adenovirus Y25 (ChAdOx1)). The experiment in a line: SPR. For orientation: SPR reads the build-up and loss of mass on a sensor chip optically.
In experiment [2] the target is HAdV-C5 hexon protein (HAdV-C5) (UniProt P04133). In words: SPR.
HAdV-C5 hexon protein (HAdV-C5), sequence (P04133 whole entry): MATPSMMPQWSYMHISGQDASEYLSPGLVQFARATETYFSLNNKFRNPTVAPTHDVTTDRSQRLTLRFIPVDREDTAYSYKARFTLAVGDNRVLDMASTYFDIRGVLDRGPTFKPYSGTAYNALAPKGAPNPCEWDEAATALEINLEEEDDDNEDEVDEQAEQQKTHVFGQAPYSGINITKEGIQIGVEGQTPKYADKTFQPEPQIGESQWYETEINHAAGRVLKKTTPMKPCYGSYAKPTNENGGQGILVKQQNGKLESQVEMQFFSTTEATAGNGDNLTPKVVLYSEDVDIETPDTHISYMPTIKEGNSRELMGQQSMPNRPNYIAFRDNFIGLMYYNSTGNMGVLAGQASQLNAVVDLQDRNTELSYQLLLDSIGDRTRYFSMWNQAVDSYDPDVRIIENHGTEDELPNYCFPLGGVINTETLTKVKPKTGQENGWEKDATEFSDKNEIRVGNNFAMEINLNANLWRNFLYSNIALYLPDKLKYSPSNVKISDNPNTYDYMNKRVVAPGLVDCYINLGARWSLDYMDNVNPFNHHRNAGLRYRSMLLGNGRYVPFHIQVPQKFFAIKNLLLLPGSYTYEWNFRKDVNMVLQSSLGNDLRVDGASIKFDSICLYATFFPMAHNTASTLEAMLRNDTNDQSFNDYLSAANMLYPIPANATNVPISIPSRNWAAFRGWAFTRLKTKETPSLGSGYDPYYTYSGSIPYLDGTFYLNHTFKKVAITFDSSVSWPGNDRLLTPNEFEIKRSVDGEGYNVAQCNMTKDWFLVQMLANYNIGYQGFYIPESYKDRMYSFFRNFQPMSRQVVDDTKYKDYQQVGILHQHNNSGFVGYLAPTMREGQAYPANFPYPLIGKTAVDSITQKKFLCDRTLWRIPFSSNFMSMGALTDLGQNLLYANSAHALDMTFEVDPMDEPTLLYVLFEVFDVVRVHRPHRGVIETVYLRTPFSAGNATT

As to “platelet factor 4 (PF4) (natural protein)”, the dissociation constant Kd (usually the free concentration of one partner at which half of the binding sites on the other are occupied at equilibrium, for simple one-to-one binding) in experiment [1] is 296 nM; in experiment [2] it was 767 nM.

These data come from publication doi:10.1101/2025.03.09.642192.
